# Test results published in patent publication US7947876B2 (Nippon Paper Industries Co., Ltd., priority 2004, dated 2011).
# Ends that are not written are not given here.
# Tested on: mouse islet
# Test: Thermal stability, activity measured by cAMP generation using mouse islet
# Format: cell-based
# Conditions: 15 min at 100° C.; for stability for thermal treatment (activity by cAMP generation): 10 μg/ml in 0.2% BSA solution, versus non-thermal treated control
# Procedure: Further, trypsin treatment was performed, and a monomer GLP-1 derivative was obtained. […] To these thermal treated substances, non-thermal treated substances were prepared similarly as a control. Then, with respect to these substances, the activity was measured by cAMP generation using mouse islet. […] On the other hand, as the synthetic peptide was heat-stable, the 5 linked peptide expressed in rice was estimated to have changed by thermal denaturation to a tertiary structure which would not be easily digested by trypsin.
Substance,stability for thermal treatment (activity by cAMP generation),"activity lower than that of non-thermally treated (cAMP generation) (rice in distilled water, then extraction and trypsin treatment, FIG. 8)"
"[Ser^8,Gln^26, Asn^34]-GLP-1 (HSEGTFTSDVSSYLEGQAAQEFIAWLVNGR; ends and bridges not checked) [synthetic GLP-1 derivative]",stable,–
synthetic native GLP-1: native GLP-1 obtained by synthesis [reference compound],stable,–
"[Ser^8,Gln^26, Asn^34]-GLP-1 (HDEFERHSEGTFTSDVSSYLEGQAAQEFIAWLVNGRG; Glucagon-like peptide 1; UniProt P01275 92-128, looked up, variant A8S K26Q K34N)",–,about 33%
